From paper PMC5527020

What was measured:
[1] = tested on: Hepatitis B surface antigen (HBs Ag); assay: magnetic-bead pull-down with q-PCR; details: BD buffer: 50 mM NaH2PO4 pH 8.0, 150 mM NaCl, 5 mM KCl, 2 mM MgCl2, 0.05% Tween-20; room temperature, 30 min; aptamer heated to 95 C and cooled at 4 C
HCV NS3 = assay: magnetic-bead pull-down with q-PCR; details: BD buffer: 50 mM NaH2PO4 pH 8.0, 150 mM NaCl, 5 mM KCl, 2 mM MgCl2, 0.05% Tween-20; room temperature, 30 min; aptamer heated to 95 C and cooled at 4 C

Question: Which Kd [1] does the source give for “AGCAGCACAGAGGTCCTGCATCACGAAGCCTGGCAGCGTGCTACCGTGAA [MP-1]” here?
Answer: The Kd was 28.3 nM.

Question: What about the Kd (HCV NS3) of the same sequence?
Answer: Its Kd is 23.3 nM.
